In paper PMC4250520, “Calcium-induced conformational changes of the regulatory domain of human mitochondrial aspartate/glutamate carriers” (Nature Communications, 2014):
One block for each binder: values may come before it.

Legend:
[1] = biological target: the molecule itself; experiment: SEC-MALLS; Superdex 200 10/300 GL; 20 mM Hepes pH 7.5, 150 mM NaCl, 5 mM CaCl2; two-detector method
[2] = biological target: the molecule itself; experiment: SEC-MALLS; Superose 6 10/300 GL; 20 mM Hepes pH 8.0, 150 mM NaCl, 0.002% (w/v) LMNG, 0.004 mg/ml TOCL; protein-conjugate (three-detector) method
[3] = biological target: T1, N-terminal domain of citrin (human, UniProt Q9UJS0 2-319); experiment: SEC; fusion cleaved with MBP-TEV overnight, then Superose 12 10/30 HR; 20 mM Hepes pH 7.5, 150 mM NaCl, 10 mM EGTA (sample E, supplemented with 10 mM EGTA and 10 mM EDTA); peak fractions on Tris-tricine gels; conditions: both partners purified
T1 construct: human citrin N-terminal domain, residues 2-319; In the crystal structure it is joined to the C-terminal domain on one chain; The N-terminal domain of citrin could not be expressed on its own; also called EF-hands 1-8; source: Lactococcus lactis NZ9000, as part of the purified fusion; set free by cleavage with MBP-TEV
T1 sequence (looked up): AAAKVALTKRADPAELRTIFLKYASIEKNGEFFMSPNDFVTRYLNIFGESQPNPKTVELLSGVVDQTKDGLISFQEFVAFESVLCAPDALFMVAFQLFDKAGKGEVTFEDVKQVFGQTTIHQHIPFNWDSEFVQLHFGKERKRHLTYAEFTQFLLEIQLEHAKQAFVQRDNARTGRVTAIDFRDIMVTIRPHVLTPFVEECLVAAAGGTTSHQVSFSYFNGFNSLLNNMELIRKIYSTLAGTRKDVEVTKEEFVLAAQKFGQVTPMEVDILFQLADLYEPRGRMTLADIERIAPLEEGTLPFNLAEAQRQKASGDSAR

B1: N- and C-terminal domain fusion of aralar (domain or fragment, human)
chain: AVKVQTTKRGDPHELRNIFLQYASTEVDGERYMTPEDFVQRYLGLYNDPNSNPKIVQLLAGVADQTKDGLISYQEFLAFESVLCAPDSMFIVAFQLFDKSGNGEVTFENVKEIFGQTIIHHHIPFNWDCEFIRLHFGHNRKKHLNYTEFTQFLQELQLEHARQAFALKDKSKSGMISGLDFSDIMVTIRSHMLTPFVEENLVSAAGGSISHQVSFSYFNAFNSLLNNMELVRKIYSTLAGTRKDVEVTKEEFAQSAIRYGQVTPLEIDILYQLADLYNASGRLTLADIERIAPLAEGALPYNLAELQRQQSPGLGRENLYFQGGLKPAGSEPTPKSRIADLPPANPDHIGGYRLATATFAGIENKFGLYLPKFKSPSVAVVQPKAAVAATQ
notes: human aralar N-terminal domain, residues 2-317; TEV protease cleavage site that links the two domains in place of the carrier domain; human aralar C-terminal domain, residues 611-678; also called aralar fusion; source: gene codon-optimized for expression in L. lactis; expressed, purified
stoichiometry N [1]: 2

B2: N-terminal domain of aralar (domain or fragment, human, UniProt O75746 2-311, looked up)
chain: AVKVQTTKRGDPHELRNIFLQYASTEVDGERYMTPEDFVQRYLGLYNDPNSNPKIVQLLAGVADQTKDGLISYQEFLAFESVLCAPDSMFIVAFQLFDKSGNGEVTFENVKEIFGQTIIHHHIPFNWDCEFIRLHFGHNRKKHLNYTEFTQFLQELQLEHARQAFALKDKSKSGMISGLDFSDIMVTIRSHMLTPFVEENLVSAAGGSISHQVSFSYFNAFNSLLNNMELVRKIYSTLAGTRKDVEVTKEEFAQSAIRYGQVTPLEIDILYQLADLYNASGRLTLADIERIAPLAEGALPYNLAELQRQQ
notes: human aralar N-terminal domain, residues 2-311; Tag removed with Factor Xa; also called aralar N-terminal domain; regulatory domain of aralar; source: Lactococcus lactis NZ9000, purified (Nickel Sepharose, Factor Xa, SEC); not shown: His8, N-terminal, cleaved
stoichiometry N [1]: 2

B3: citrin (mitochondrial aspartate/glutamate carrier isoform 2), full-length (natural protein, human, UniProt Q9UJS0 1-675, looked up)
chain: MAAAKVALTKRADPAELRTIFLKYASIEKNGEFFMSPNDFVTRYLNIFGESQPNPKTVELLSGVVDQTKDGLISFQEFVAFESVLCAPDALFMVAFQLFDKAGKGEVTFEDVKQVFGQTTIHQHIPFNWDSEFVQLHFGKERKRHLTYAEFTQFLLEIQLEHAKQAFVQRDNARTGRVTAIDFRDIMVTIRPHVLTPFVEECLVAAAGGTTSHQVSFSYFNGFNSLLNNMELIRKIYSTLAGTRKDVEVTKEEFVLAAQKFGQVTPMEVDILFQLADLYEPRGRMTLADIERIAPLEEGTLPFNLAEAQRQKASGDSARPVLLQVAESAYRFGLGSVAGAVGATAVYPIDLVKTRMQNQRSTGSFVGELMYKNSFDCFKKVLRYEGFFGLYRGLLPQLLGVAPEKAIKLTVNDFVRDKFMHKDGSVPLAAEILAGGCAGGSQVIFTNPLEIVKIRLQVAGEITTGPRVSALSVVRDLGFFGIYKGAKACFLRDIPFSAIYFPCYAHVKASFANEDGQVSPGSLLLAGAIAGMPAASLVTPADVIKTRLQVAARAGQTTYSGVIDCFRKILREEGPKALWKGAGARVFRSSPQFGVTLLTYELLQRWFYIDFGGVKPMGSEPVPKSRINLPAPNPDHVGGYKLAVATFAGIENKFGLYLPLFKPSVSTSKAIGGGP
notes: also called SLC25A13; AGC2; source: purified in lauryl maltose neopentyl glycol
stoichiometry N [2]: 2

binding result [3]: binds
B4: C-terminal domain of citrin (domain or fragment, human, UniProt Q9UJS0 613-675, looked up)
chain: GVKPMGSEPVPKSRINLPAPNPDHVGGYKLAVATFAGIENKFGLYLPLFKPSVSTSKAIGGGP
notes: human citrin C-terminal domain, residues 613-675; residues 632-658 are seen in the structure; In the crystal structure it is joined to the N-terminal domain on one chain; also called C-terminal helix; source: Lactococcus lactis NZ9000, as part of the purified fusion; set free by cleavage with MBP-TEV

B5: N- and C-terminal domain fusion of citrin (domain or fragment, human)
chain: AAAKVALTKRADPAELRTIFLKYASIEKNGEFFMSPNDFVTRYLNIFGESQPNPKTVELLSGVVDQTKDGLISFQEFVAFESVLCAPDALFMVAFQLFDKAGKGEVTFEDVKQVFGQTTIHQHIPFNWDSEFVQLHFGKERKRHLTYAEFTQFLLEIQLEHAKQAFVQRDNARTGRVTAIDFRDIMVTIRPHVLTPFVEECLVAAAGGTTSHQVSFSYFNGFNSLLNNMELIRKIYSTLAGTRKDVEVTKEEFVLAAQKFGQVTPMEVDILFQLADLYEPRGRMTLADIERIAPLEEGTLPFNLAEAQRQKASGDSARENLYFQGGVKPMGSEPVPKSRINLPAPNPDHVGGYKLAVATFAGIENKFGLYLPLFKPSVSTSKAIGGGP
notes: human citrin N-terminal domain, residues 2-319; TEV protease cleavage site that links the two domains in place of the carrier domain; human citrin C-terminal domain, residues 613-675; A Factor-Xa cleavage site follows the octa-histidine tag; no tag removal step is described in the purification of this fusion; also called citrin N- and C-terminal fusion protein; regulatory domain of citrin; …
stoichiometry N [1]: 2
